Laboratory results from the supplement of paper PMC10567573.

B1: FANCE (parent)
chain: AQVLMLGQILELPWKEETFLVLQS

Variants of: B1
Assay: protein stability index of a GFP-peptide fusion (GPS, HEK-293T) (PSI 1-6); higher = more stable
Settings: c terminus: a fixed tail appended
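Further: lentivirally expressed fusions sorted by FACS into six bins by GFP to DsRed ratio, PSI derived from sequencing read proportions per bin multiplied by bin number.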

Row | Variant | protein stability index
1 | AQVWMLGQILELPWKEETFLVLQS [L4W] | 2.28
2 | AQVDMLGQILELPWKEETFLVLQS [L4D] | 3.76
3 | AQVHMLGQILELPWKEETFLVLQS [L4H] | 1.66
4 | AQVYMLGQILELPWKEETFLVLQS [L4Y] | 2.82
5 | AQVSMLGQILELPWKEETFLVLQS [L4S] | 2
6 | AQVEMLGQILELPWKEETFLVLQS [L4E] | 3.28
7 | AQVTMLGQILELPWKEETFLVLQS [L4T] | 2.7
8 | AQVRMLGQILELPWKEETFLVLQS [L4R] | 2.68
9 | AGVLMLGQILELPWKEETFLVLQS [Q2G] | 2.21
10 | AYVLMLGQILELPWKEETFLVLQS [Q2Y] | 1.82
11 | ASVLMLGQILELPWKEETFLVLQS [Q2S] | 2.87
12 | AKVLMLGQILELPWKEETFLVLQS [Q2K] | 2.02
13 | ANVLMLGQILELPWKEETFLVLQS [Q2N] | 3.14
14 | AFVLMLGQILELPWKEETFLVLQS [Q2F] | 1.72
15 | ATVLMLGQILELPWKEETFLVLQS [Q2T] | 3.45
16 | AHVLMLGQILELPWKEETFLVLQS [Q2H] | 2.69
17 | APVLMLGQILELPWKEETFLVLQS [Q2P] | 1.55
18 | AEVLMLGQILELPWKEETFLVLQS [Q2E] | 2.48
19 | AIVLMLGQILELPWKEETFLVLQS [Q2I] | 3.13
20 | TQVLMLGQILELPWKEETFLVLQS [A1T] | 4.61
21 | HQVLMLGQILELPWKEETFLVLQS [A1H] | 1.25
22 | LQVLMLGQILELPWKEETFLVLQS [A1L] | 3.15
23 | CQVLMLGQILELPWKEETFLVLQS [A1C] | 2.51
24 | WQVLMLGQILELPWKEETFLVLQS [A1W] | 2.62

Row | Variant | protein stability index
25 | DQVLMLGQILELPWKEETFLVLQS [A1D] | 1.77
26 | EQVLMLGQILELPWKEETFLVLQS [A1E] | 2.43
27 | AQVLMLGQILELPWKEKTFLVLQS [E17K] | 3.12
28 | AQVLMLGQILELPWKERTFLVLQS [E17R] | 1.48
29 | AQVLMLGQILELPWKEQTFLVLQS [E17Q] | 3.48
30 | AQVLMLGQILELPWKEATFLVLQS [E17A] | 2.43
31 | AQVLMLGQILELPWKEFTFLVLQS [E17F] | 1.89
32 | AQVLMLGQILELPWKEGTFLVLQS [E17G] | 4.35
33 | AQVLMLGQILELPWKENTFLVLQS [E17N] | 4.33
34 | AQVLMLGQILELPWKEHTFLVLQS [E17H] | 3.21
35 | AQVLMLGQILTLPWKEETFLVLQS [E11T] | 2.47
36 | AQVLMLGQILPLPWKEETFLVLQS [E11P] | 3.01
37 | AQVLMLGQILALPWKEETFLVLQS [E11A] | 4.02
38 | AQVLMLGQILCLPWKEETFLVLQS [E11C] | 5.4
39 | AQVLMLGQILDLPWKEETFLVLQS [E11D] | 3.64
40 | AQVLMLGQILILPWKEETFLVLQS [E11I] | 1.47
41 | AQVLMLGQILHLPWKEETFLVLQS [E11H] | 1.11
42 | AQVLMLGQILYLPWKEETFLVLQS [E11Y] | 3.17
43 | AQVLMLGQILELCWKEETFLVLQS [P13C] | 4.64
44 | AQVLMLGQILELHWKEETFLVLQS [P13H] | 2.19
45 | AQVLMLGQILELQWKEETFLVLQS [P13Q] | 2.39
46 | AQVLMLGQILELAWKEETFLVLQS [P13A] | 5.32
47 | AQVLMLGQILELNWKEETFLVLQS [P13N] | 3.19
48 | AQVLMLGQILELKWKEETFLVLQS [P13K] | 2.57

Row | Variant | protein stability index
49 | AQVLMLGQILELLWKEETFLVLQS [P13L] | 2.2
50 | AQVLMLGQILELPWKEETFLELQS [V21E] | 2.57
51 | AQVLMLGQILELPWKEETFLQLQS [V21Q] | 2.54
52 | AQVLMLGQILELPWKEETFLCLQS [V21C] | 3.25
53 | AQVLMLGQILELPWKEETFLKLQS [V21K] | 2.9
54 | AQVLMLGQILELPWKEETFLYLQS [V21Y] | 3.3
55 | AQVLMLGQILELPWKEETFLALQS [V21A] | 3.08
56 | AQVLMLGQILELPWKEETFLTLQS [V21T] | 3.45
57 | AQVLMLGQILELPWKEETFLHLQS [V21H] | 1.77
58 | AQVLMLGQILELPWKEETFLDLQS [V21D] | 2.08
59 | AQVLMLGQILELPWKEETFLNLQS [V21N] | 2.3
60 | AQTLMLGQILELPWKEETFLVLQS [V3T] | 2.01
61 | AQYLMLGQILELPWKEETFLVLQS [V3Y] | 2.82
62 | AQRLMLGQILELPWKEETFLVLQS [V3R] | 2.92
63 | AQELMLGQILELPWKEETFLVLQS [V3E] | 1.82
64 | AQFLMLGQILELPWKEETFLVLQS [V3F] | 3.46
65 | AQMLMLGQILELPWKEETFLVLQS [V3M] | 2.09
66 | AQPLMLGQILELPWKEETFLVLQS [V3P] | 1.56
67 | AQVLMLGQILELPWKVETFLVLQS [E16V] | 3.46
68 | AQVLMLGQILELPWKQETFLVLQS [E16Q] | 3.56
69 | AQVLMLGQILELPWKLETFLVLQS [E16L] | 3.01
70 | AQVLMLGQILELPWKGETFLVLQS [E16G] | 2.03
71 | AQVLMLGQILELPWKTETFLVLQS [E16T] | 3.35
72 | AQVLMLGQILELPWKMETFLVLQS [E16M] | 2.5

Row | Variant | protein stability index
73 | AQVLMLGQIHELPWKEETFLVLQS [L10H] | 3.55
74 | AQVLMLGQISELPWKEETFLVLQS [L10S] | 3
75 | AQVLMLGQITELPWKEETFLVLQS [L10T] | 2.28
76 | AQVLMLGQIGELPWKEETFLVLQS [L10G] | 2.19
77 | AQVLMLGQIYELPWKEETFLVLQS [L10Y] | 4.15
78 | AQVLMLGQINELPWKEETFLVLQS [L10N] | 1.88
79 | AQVLMLGQCLELPWKEETFLVLQS [I9C] | 2.36
80 | AQVLMLGQDLELPWKEETFLVLQS [I9D] | 2.85
81 | AQVLMLGQMLELPWKEETFLVLQS [I9M] | 2.82
82 | AQVLMLGQQLELPWKEETFLVLQS [I9Q] | 1.68
83 | AQVLMLGQHLELPWKEETFLVLQS [I9H] | 2.26
84 | AQVLMLGQFLELPWKEETFLVLQS [I9F] | 3.22
85 | AQVLMLGQELELPWKEETFLVLQS [I9E] | 1.63
86 | AQVLMLGQSLELPWKEETFLVLQS [I9S] | 2.09
87 | AQVLMLGGILELPWKEETFLVLQS [Q8G] | 4.12
88 | AQVLMLGAILELPWKEETFLVLQS [Q8A] | 2.48
89 | AQVLMLGIILELPWKEETFLVLQS [Q8I] | 4.26
90 | AQVLMLGLILELPWKEETFLVLQS [Q8L] | 3.68
91 | AQVLMLGFILELPWKEETFLVLQS [Q8F] | 2.51
92 | AQVLMLGWILELPWKEETFLVLQS [Q8W] | 2.25
93 | AQVLMLGEILELPWKEETFLVLQS [Q8E] | 1.35
94 | AQVLMLGHILELPWKEETFLVLQS [Q8H] | 2.57
